Laboratory results: patent publication US20090203760A1 (UNIVERSITY OF QUEENSLAND, published 2009)
Each block holds one molecule with its values, some of them ahead of it. Bridges are numbered along the chain shown (N, C = ends). Where no end group is shown, it is not given here. [ ]: non-standard residue; d: D form. NMeF = CN[C@@H](Cc1ccccc1)C(=O)O; dCha = N[C@H](CC1CCCCC1)C(=O)O

What was measured:
[1] = biological target: human C5a receptor (C5aR) on intact human polymorphonuclear leukocytes (PMNs) (human) (UniProt P21730); test: 50% inhibition of [125I]C5a binding to intact PMNs
[2] = biological target: human C5a receptor (C5aR) on intact human polymorphonuclear leukocytes (PMNs) (human) (UniProt P21730); test: cell-based or functional assay
[3] = biological target: T1, human C5a receptor (C5aR) on intact human polymorphonuclear leukocytes (PMNs) (human, UniProt P21730 1-350); test: unlabelled C5a competing with 125I-C5a for binding to intact human PMNs, 4 °C
T1 construct: whole, on cells; Native receptor on fresh human PMNs; not a recombinant construct; also called PMN C5aR
T1 sequence (looked up): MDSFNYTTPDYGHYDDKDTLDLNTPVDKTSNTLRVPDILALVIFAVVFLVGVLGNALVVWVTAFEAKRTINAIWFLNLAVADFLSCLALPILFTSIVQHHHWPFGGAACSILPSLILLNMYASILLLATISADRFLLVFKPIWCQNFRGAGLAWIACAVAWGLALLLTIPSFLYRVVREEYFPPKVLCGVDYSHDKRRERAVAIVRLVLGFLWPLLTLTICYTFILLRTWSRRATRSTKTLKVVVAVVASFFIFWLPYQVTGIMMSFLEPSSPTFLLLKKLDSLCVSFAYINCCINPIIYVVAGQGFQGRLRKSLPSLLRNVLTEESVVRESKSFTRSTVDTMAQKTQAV

[4] = biological target: human C5a receptor (C5aR) on intact human polymorphonuclear leukocytes (PMNs) (human) (UniProt P21730); test: 50% inhibition of [125I]C5a binding to intact PMNs; column head prints 'IC50 (M)', the pD2 shows µM
[5] = biological target: T1, human C5a receptor (C5aR) on intact …; test: competition with 125I-C5a for binding to intact human PMNs, 4 °C
[6] = biological target: T1, human C5a receptor (C5aR) on intact …; test: cell-based or functional assay
[7] = biological target: T1, human C5a receptor (C5aR) on intact …; test: cell-based or functional assay; remark: listed apart in the source
[8] = biological target: T1, human C5a receptor (C5aR) on intact …; test: 50% inhibition of [125I]C5a binding to intact PMNs; column head prints 'IC50 (M)', the pD2 shows µM

IC50 [1]: 0.06 µM | pD2 [1]: 7.21 | IC50: 50% inhibition in the ability of C5a (100 nM) to cause the release of MPO from PMNs [2]: 0.04 µM | pD2: 50% inhibition in the ability of C5a (100 nM) to cause the release of MPO from PMNs [2]: 7.41
Molecule: F-[OPdChaWR] (peptide)

IC50 [1]: 0.3 µM | pD2 [1]: 6.5 | IC50: 50% inhibition in the ability of C5a (100 nM) to cause the release of MPO from PMNs [2]: 0.2 µM | pD2: 50% inhibition in the ability of C5a (100 nM) to cause the release of MPO from PMNs [2]: 6.69
Molecule: F-[KPdChaWR] (peptide)

IC50 [1]: 8.1 µM | pD2 [1]: 5.09 | IC50: 50% inhibition in the ability of C5a (100 nM) to cause the release of MPO from PMNs [2]: 2.8 µM | pD2: 50% inhibition in the ability of C5a (100 nM) to cause the release of MPO from PMNs [2]: 5.55
Molecule: F-[KPdChaWr] (peptide)

pD2: 50% inhibition in the ability of C5a (100 nM) to cause the release of MPO from PMNs [2]: 7.07
Molecule: AcF-[KPdChaWr] (peptide)

pD2 [1]: 4.6 | in vitro activity as a C5a antagonist in PMNs, against 17 [2]: 100 fold | pD2: 50% inhibition in the ability of C5a (100 nM) to cause the release of MPO from PMNs [2]: 7.3
Molecule: AcF-[OPdChaWr] (peptide)

IC50 [1]: 3.1 µM | pD2 [1]: 5.51 | IC50: 50% inhibition in the ability of C5a (100 nM) to cause the release of MPO from PMNs [2]: 1.6 µM | pD2: 50% inhibition in the ability of C5a (100 nM) to cause the release of MPO from PMNs [2]: 5.79
Molecule: F-[OPdChaWr] (peptide)

IC50 [3]: 0.0008 µM
B1: human recombinant C5a (ligand, UniProt P01031 678-751, looked up)
chain: TLQKKIEEIAAKYKHSVVKKCCYDGACVNNDETCEQRAARISLGPRCIKAFTECCVVASQLRANISHKDMQLGR
modifications: tracer form: Hunter/Bolton labelled 125I (New England Nuclear); unlabelled competitor form: none stated
notes: mature

pD2 [1]: 4.37 | IC50 [4]: 43 µM
B2: [FWPdChaWr] (peptide)
peptide: cyclo(FWP[dCha]W[dR])
SMILES: N=C(N)NCCC[C@H]1NC(=O)[C@H](Cc2c[nH]c3ccccc23)NC(=O)[C@@H](CC2CCCCC2)NC(=O)[C@@H]2CCCN2C(=O)[C@H](Cc2c[nH]c3ccccc23)NC(=O)[C@H](Cc2ccccc2)NC1=O

IC50 [5]: 14 µM | antagonist activity against 7 (myeloperoxidase release from human PMNs) [6]: ~5 fold | Antagonist Potency IC50: 50% reduction in myeloperoxidase secretion from human PMNs mediated by 100 nM C5a [7]: 0.5 µM
B3: MeFKP(dCha)Wr-CONH2 (peptide)
peptide: [NMeF]KP[dCha]W[dR]-NH2
notes: Linear; C-terminal amide of 7; also called ID NO:8

IC50 [5]: 11 µM
B4: MeFKP(dCha)WR (peptide)
peptide: [NMeF]KP[dCha]WR
notes: Linear; 7 with the chirality of Arg changed; also called ID NO:9

IC50 [5]: 144 µM | Antagonist Potency IC50: 50% reduction in myeloperoxidase secretion from human PMNs mediated by 100 nM C5a [7]: > 1000 µM
B5: MeFKPLWR (peptide)
peptide: [NMeF]KPLWR
notes: Linear; dCha replaced by Leu; also called 10; ID NO:10

pD2 [1]: 4.81 | IC50 [4]: 15 µM
B6: AcF-[KMdChaWr] (peptide)
peptide: FKMXWR
modifications: N-acetyl-Phe at 1; D-cyclohexylalanine (dCha) at 4; D-Arg at 6; cyclic over residues 2-6 (Lys side chain to C-terminus)

IC50 [8]: 11 µM
B7: AcKF-[OPdChaWr] (peptide)
peptide: KFXPXWR
modifications: N-acetyl-Lys at 1; ornithine (O) at 3; D-cyclohexylalanine (dCha) at 5; D-Arg at 7; cyclic over residues 3-7 (ornithine side chain to C-terminus)
notes: Cyclic

pD2 [1]: 3.94 | IC50 [4]: 116 µM | IC50: 50% inhibition in the ability of C5a (100 nM) to cause the release of MPO from PMNs [2]: 13 µM | pD2: 50% inhibition in the ability of C5a (100 nM) to cause the release of MPO from PMNs [2]: 4.88
B8: AcF-[KKdChaWr] (peptide)
peptide: Ac-FKK[dCha]W[dR]
modifications: lactam 2-C
SMILES: CC(=O)N[C@@H](Cc1ccccc1)C(=O)N[C@H]1CCCCNC(=O)[C@@H](CCCNC(=N)N)NC(=O)[C@H](Cc2c[nH]c3ccccc23)NC(=O)[C@@H](CC2CCCCC2)NC(=O)[C@H](CCCCN)NC1=O
